This is an account of results in article PMC8978092 (Cell, 2022).

The data set “crystal structure” concerns the molecule itself. The experiment in a line: crystal structure.
The data set “cryo-EM structure” deals with the molecule itself. In words: cryo-EM structure.

B1: Enterococcus pore-forming toxin 4 (Epx4), residues 32-335, C-terminal His6 (natural protein)
chain: SEDNIIGTTTQEIDEHGNVKTIITVKNQQIESYTSTDSGTAKNRSTLTVNANFLNDKYSNELTTILSLNGFIPSGRKFIFPKNNTLKGEMLWPQRYSTAVYNIPLDKSVKITNSTPDNTIRSKEVSNSITYGIGGGIKMEGKQPGANLDANAAITKTISYQQPDYETAKTTSTVTGVNWNTNFTETRDGYTRNSWNPVYGNQMFMYGRYTSNIRNNFTPDYQLSSLITSGFSPSYGLVLRAPKDVKKSRIKVVFARRSETYQQNWDGLNWWGRNFYDTKNPDSLSKVTLTFELDWQNHRVTFIELEHHHHHH
B1: the stoichiometry N (usually the number of molecules, sites or subunits per partner or assembly) in the data set “crystal structure” was determined as 8.

B2: Enterococcus pore-forming toxin 1 (Epx1), residues 24-345, C-terminal His6 (natural protein)
chain: DVQVFADNPVLGTEVTFEKDENGRIVKIISKNQYRITIYNSVDAGDTPNDASVSLDVDFIDDKNSGEMGAVASINTFIPSGLRYVEGYKYKGVTNPIYKNLSAGMLWPKKYRVEVVNIPIDQATKIITATPNNNIKEKQVSDTISYGFGGSVSADGKKPGGSIEANLAYTKTTTYDQPDYETSQIKKTTKEAVWDTSFVETRDGYTPNSWNPVYGNQMFMRGRYSNVSPIDNIKKGGEVSSLISGGFSPKMGVVLASPNGTKKSQFVVRVSRMSDMYIMRWSGTEWGGENEINQNVPKEYNALMYEDVKFEIDWEQRTVRTILEHHHHHH
Take B2: in “cryo-EM structure”, the “stoichiometry N” value came to 8.
